In the supplement of paper PMC9112550, “Optimization of the antimicrobial peptide Bac7 by deep mutational scanning” (BMC Biology, 2022):

Test system: Escherichia coli TOP10
Assay: shrunken log2 fold change of peptide-encoding DNA abundance (4.5 h post-induction vs induction); higher = less antimicrobial activity (less host growth inhibition)
Settings: time post-induction: 4.5 h; library: site-saturation at positions 5, 18, 19, 20
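Further: peptides expressed intracellularly from a pBAD plasmid library in pooled LB shake-flask culture, induced with 0.3% L-arabinose, DNA abundance read by NGS, three biological replicates, DESeq2 with apeglm shrinkage.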

Row | Sequence | shrunken log2 fold change
1 | RRIRLRPPRLPRPRPRPFDIPRP | -0.0171
2 | RRIRHRPPRLPRPRPRPIEYPRP | -0.129
3 | RRIRPRPPRLPRPRPRPYMDPRP | -0.447
4 | RRIRLRPPRLPRPRPRPMIKPRP | 0.0349
5 | RRIRVRPPRLPRPRPRPIMWPRP | 0.03
6 | RRIRRRPPRLPRPRPRPEQQPRP | 0.22
7 | RRIRGRPPRLPRPRPRPESRPRP | 0.831
8 | RRIRRRPPRLPRPRPRPTMMPRP | 0.167
9 | RRIRCRPPRLPRPRPRPFRMPRP | -0.113
10 | RRIRKRPPRLPRPRPRPWWGPRP | 0.0849
11 | RRIRGRPPRLPRPRPRPMLLPRP | 0.548
12 | RRIRMRPPRLPRPRPRPMTIPRP | -0.329
13 | RRIRLRPPRLPRPRPRPPMLPRP | -0.0338
14 | RRIRRRPPRLPRPRPRPLYKPRP | -0.248
15 | RRIRTRPPRLPRPRPRPHADPRP | 0.0427
16 | RRIRNRPPRLPRPRPRPWTCPRP | 0.0493
17 | RRIRGRPPRLPRPRPRPYKWPRP | -0.0702
18 | RRIRPRPPRLPRPRPRPPRPPRP | 0.682
19 | RRIRSRPPRLPRPRPRPAQDPRP | 0.235
20 | RRIRSRPPRLPRPRPRPSMLPRP | -0.3
21 | RRIRDRPPRLPRPRPRPQRRPRP | 0.255
22 | RRIRTRPPRLPRPRPRPLHHPRP | -0.494
23 | RRIRQRPPRLPRPRPRPMTWPRP | -0.0225
24 | RRIRYRPPRLPRPRPRPSASPRP | -0.071
25 | RRIRWRPPRLPRPRPRPLTWPRP | 0.302

Row | Sequence | shrunken log2 fold change
26 | RRIRVRPPRLPRPRPRPWCEPRP | -0.293
27 | RRIRDRPPRLPRPRPRPTFAPRP | 0.454
28 | RRIRDRPPRLPRPRPRPMAVPRP | 0.417
29 | RRIRPRPPRLPRPRPRPRHFPRP | 0.168
30 | RRIRQRPPRLPRPRPRPGDHPRP | -0.0718
31 | RRIRYRPPRLPRPRPRPPQWPRP | 0.204
32 | RRIRTRPPRLPRPRPRPNTCPRP | -0.395
33 | RRIRLRPPRLPRPRPRPYHQPRP | -0.026
34 | RRIRMRPPRLPRPRPRPPISPRP | 0.163
35 | RRIRRRPPRLPRPRPRPTQSPRP | 0.804
36 | RRIRERPPRLPRPRPRPSMQPRP | -0.759
37 | RRIRARPPRLPRPRPRPLWLPRP | 0.302
38 | RRIRCRPPRLPRPRPRPAYCPRP | -0.363
39 | RRIRNRPPRLPRPRPRPFYIPRP | -0.51
40 | RRIRCRPPRLPRPRPRPRHLPRP | -0.302
41 | RRIRNRPPRLPRPRPRPACMPRP | 0.0165
42 | RRIRDRPPRLPRPRPRPTDRPRP | 0.694
43 | RRIRGRPPRLPRPRPRPPPGPRP | 1.36
44 | RRIRNRPPRLPRPRPRPPAMPRP | 0.124
45 | RRIRPRPPRLPRPRPRPKEMPRP | -0.106
46 | RRIRPRPPRLPRPRPRPWHYPRP | 0.0497
47 | RRIRFRPPRLPRPRPRPYSRPRP | -0.187
48 | RRIRARPPRLPRPRPRPEGPPRP | 0.577
49 | RRIRFRPPRLPRPRPRPHYIPRP | -0.0793
50 | RRIRMRPPRLPRPRPRPSERPRP | 0.365

Row | Sequence | shrunken log2 fold change
51 | RRIRLRPPRLPRPRPRPHGPPRP | 0.101
52 | RRIRNRPPRLPRPRPRPNIPPRP | -0.24
53 | RRIRVRPPRLPRPRPRPLYWPRP | -0.329
54 | RRIRARPPRLPRPRPRPIKHPRP | -0.0409
55 | RRIRPRPPRLPRPRPRPQPLPRP | 0.16
56 | RRIRVRPPRLPRPRPRPNKAPRP | 0.13
57 | RRIRLRPPRLPRPRPRPSPMPRP | -0.107
58 | RRIRWRPPRLPRPRPRPACYPRP | 0.443
59 | RRIRYRPPRLPRPRPRPGSWPRP | 0.0212
60 | RRIRYRPPRLPRPRPRPSFCPRP | -0.793
61 | RRIRHRPPRLPRPRPRPNPDPRP | -0.0353
62 | RRIRGRPPRLPRPRPRPLGLPRP | 0.841
63 | RRIRRRPPRLPRPRPRPLHLPRP | -0.318
64 | RRIRVRPPRLPRPRPRPDPLPRP | -0.231
65 | RRIRNRPPRLPRPRPRPAGKPRP | -0.0122
66 | RRIRSRPPRLPRPRPRPAEWPRP | 1.02
67 | RRIRCRPPRLPRPRPRPGDDPRP | 0.745
68 | RRIRCRPPRLPRPRPRPTYFPRP | -0.0696
69 | RRIRRRPPRLPRPRPRPRDAPRP | 0.736
70 | RRIRQRPPRLPRPRPRPLRYPRP | -0.0738
71 | RRIRHRPPRLPRPRPRPWKAPRP | 0.00938
72 | RRIRLRPPRLPRPRPRPVIAPRP | -0.176
73 | RRIRKRPPRLPRPRPRPDPQPRP | 0.729
74 | RRIRWRPPRLPRPRPRPAVEPRP | 0.497
75 | RRIRGRPPRLPRPRPRPNALPRP | 0.474
